Data: US20190248901A1 (NOVELOGICS BIOTECHNOLOGY, published 2019)

T1: recombinant extracellular alpha-3 domain of MICA (allele 001), His-tagged, Baculovirus/Sf9 expressed (human, UniProt Q29983 205-297)
T1 construct: also called MICA alpha-3 recombinant antigen; alpha-3 domain MICA immunogen
T1 sequence: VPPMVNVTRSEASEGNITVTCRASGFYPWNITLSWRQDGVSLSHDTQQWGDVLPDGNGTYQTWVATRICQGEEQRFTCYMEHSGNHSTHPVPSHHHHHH


Assays:
[1] = target: soluble MICB (sMICB) shed from prostate cancer DU-145 cells (human) (UniProt Q29980); test: subtractive immunoprecipitation from DU-145 conditioned medium with antibody on Protein G beads, remaining sMICB by MICB ELISA, against isotype controls
Sequence of soluble MICB (sMICB) shed from prostate cancer DU-145 cells (human) (Q29980 23-309): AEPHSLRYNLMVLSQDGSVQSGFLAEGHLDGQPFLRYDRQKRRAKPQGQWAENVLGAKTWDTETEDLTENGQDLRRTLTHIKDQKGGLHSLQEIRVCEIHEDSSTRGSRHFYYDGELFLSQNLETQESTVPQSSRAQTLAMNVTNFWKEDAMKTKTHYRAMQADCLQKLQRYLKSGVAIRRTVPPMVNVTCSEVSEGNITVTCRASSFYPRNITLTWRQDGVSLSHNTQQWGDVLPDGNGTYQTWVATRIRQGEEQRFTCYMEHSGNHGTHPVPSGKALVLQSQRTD

[2] = target: recombinant extracellular alpha-3 domain of MICA (allele 001), His-tagged, Baculovirus/Sf9 expressed (human) (UniProt Q29983); test: Bio-Layer Interferometry (Octet RED96), antibody captured by anti-mouse IgG, antigen in solution, pH 7.4, 1:1 model
[3] = target: T1, recombinant extracellular alpha-3 …; test: as above
Protocol: Biomolecular interactions between MICA alpha-3 recombinant antigen and test antibody were directly measured by Bio-Layer Interferometry (BLI) using a Pall ForteBio Octet RED96 machine (Pall ForteBio, CA, USA). Real-time kinetic analyses were performed on the test MICA monoclonal antibody 5C9, as well as two control antibodies, one of which could bind the alpha-3 MICA subdomain antigen (positive control) and one of which could not (negative control), as previously determined by ELISA. The Octet RED96 apparatus operates under the principle of Bio-Layer Interferometry, a label-free technique that measures molecular interactions and complex formation. A key component of the technique is the optical biosensor whose tip is immersed in the fluids of the test well and then used to assay interference patterns between waves of light. Here, the ligand (monoclonal antibody) is localized to the surface of the biosensor through capture by previously bound anti-mouse IgG, while the analyte biomolecule (antigen) is kept in solution. Binding responses between ligand and analyte were measured and reported in real-time. Both association and dissociation kinetics were monitored and KD values were calculated. This model assumed a 1:1 interaction of ligand to analyte.

reduction of the amount of sMICB in the sample [1]	Kd [2]	Kd [3]	Molecule
83%	6 nM		BAMO3, MIC alpha-3 specific murine IgG2a monoclonal antibody (MBL International)
	9600 nM		negative control antibody of the Bio-Layer Interferometry analysis
		~3.3 nM	monoclonal antibody 5C9 (antibody, V domains shown, Mouse hybridoma antibody; Used as hybridoma supernatant in the screening and immunoprecipitation assays; also called mAb 5C9; antibody from hybridoma clone 5C9) VH: QVQLQQSGAELVRPGTSVKVSCKASGYAFTNYLIEWVKQRPGQGLEWIGLIYPGSGGTNYNEKFKGKATLTADKSSSTAYMQLSSLTSDDSAVYFCARIYYGNRDYGMDYWGQGTSVTVSS VL: MTQTPLSLPVSLGDQASISCRSSQSIVHSNGNTYLEWYLQKPGQSPKLLIYKVSNRFSGVPDRFSGSGSGTDFTLKISRVEAEDLGVYYCFQGSHVPFTFGSGTKLEIK
